Values of other authors as cited in PMC7072864.

Biological target: EAG1 CNBHD CNBHD (Mus musculus) (UniProt Q60603)

EAG1 PAS domain PAS (from UniProt Q60603)
Kd: 13 µM
